Measurements as given in publication PMC4714757, “Leishmania infantum Asparagine Synthetase A Is Dispensable for Parasites Survival and Infectivity” (PLoS Neglected Tropical Diseases, 2016).

B1: LiAS-A (Leishmania infantum asparagine synthetase A) (Leishmania infantum) (protein)
chain: MSSSPQEYIDLQTRILRVKTIFAEELASALNLIQVECPMLACVGDGTQDNLSGVEKAVQVHVKEIPGANYEVVHSLAKWKRMTLGNHRFPVGRGIFTNMRALRVEETLDNIHSVYVDQWDWERVIAPADRCLEYLQATVRSLYEVLRETESRLCTEFPDIAPILPDSIKFVHTEQLLKRYPELDPKSREREAVKKLGAVFLIGIGCKLSHGDHHDVRAPDYDDWSSPVSVDSSKIGFPTADDEKPSVNTIMSLQGLNGDILVYNPVLDDVLELSSMGIRVDQEALRRQLEITGTSDRLQCRWHQCVLNGDLPQTIGGGIGQSRTVMFMLRKRHIGEVQCSVWPHEVTAQYSLL
notes: full length, 353 residues, N-terminal 6xHis tag (pET28a) with no cleavage stated, E. coli BL21(DE3)

Tests used:
[1] = target: Leishmania infantum asparagine synthetase A, recombinant, poly-His-tagged (Leishmania infantum); assay: SEC; analytic size exclusion chromatography of purified recombinant LiAS-A on Superose 12 10/300GL, calibrated with standards (Kav against Log MW and Log Stokes radius); oligomeric state of the native protein
[2] = substrate: Nc1ncnc2c1ncn2[C@@H]1O[C@H](COP(=O)(O)OP(=O)(O)OP(=O)(O)O)[C@@H](O)[C@H]1O; assay: colorimetric assay of Asn formation, steady state; assay type: biochemical, Leishmania infantum; conditions: other substrates in excess, 8.4 mM Mg2+, 85 mM Tris.HCl pH 7.6, 37°C
Text: (§1) colorimetric assay of Asn formation, steady state on LiAS-A (Leishmania infantum asparagine synthetase A)

[3] = substrate: N[C@@H](CC(=O)O)C(=O)O; assay: colorimetric assay of Asn formation, steady state; assay type: biochemical, Leishmania infantum; conditions: other substrates in excess, 8.4 mM Mg2+, 85 mM Tris.HCl pH 7.6, 37°C
Text: as §1

[4] = substrate: NC(=O)CC[C@H](N)C(=O)O; assay: colorimetric assay of Asn formation, steady state; assay type: biochemical, Leishmania infantum; conditions: glutamine as nitrogen donor, other substrates in excess, 8.4 mM Mg2+, 85 mM Tris.HCl pH 7.6, 37°C
Text: as §1

Molecule | stoichiometry N [1] | Km [2] [µM] | kcat [2] [s⁻¹] | Km [3] [µM] | kcat [3] [s⁻¹] | Km [4] [µM] | kcat [4] [s⁻¹]
Leishmania infantum asparagine synthetase A, recombinant, poly-His-tagged (enzyme) | 2 | – | – | – | – | – | –
B1 | – | 1470 ± 40 | 4.18 ± 0.02 | 6210 ± 1150 | 9.19 ± 0.69 | 1710 ± 280 | 4.51 ± 0.19
